The record followed here is article PMC10418629, “Functional Study of Amorpha fruticosa WRKY20 Gene in Response to Drought Stress”.

The target of this series is T1, GST-AfWRKY20 (Amorpha fruticosa, UniProt A0A8K1R274 1-585).
T1 sequence: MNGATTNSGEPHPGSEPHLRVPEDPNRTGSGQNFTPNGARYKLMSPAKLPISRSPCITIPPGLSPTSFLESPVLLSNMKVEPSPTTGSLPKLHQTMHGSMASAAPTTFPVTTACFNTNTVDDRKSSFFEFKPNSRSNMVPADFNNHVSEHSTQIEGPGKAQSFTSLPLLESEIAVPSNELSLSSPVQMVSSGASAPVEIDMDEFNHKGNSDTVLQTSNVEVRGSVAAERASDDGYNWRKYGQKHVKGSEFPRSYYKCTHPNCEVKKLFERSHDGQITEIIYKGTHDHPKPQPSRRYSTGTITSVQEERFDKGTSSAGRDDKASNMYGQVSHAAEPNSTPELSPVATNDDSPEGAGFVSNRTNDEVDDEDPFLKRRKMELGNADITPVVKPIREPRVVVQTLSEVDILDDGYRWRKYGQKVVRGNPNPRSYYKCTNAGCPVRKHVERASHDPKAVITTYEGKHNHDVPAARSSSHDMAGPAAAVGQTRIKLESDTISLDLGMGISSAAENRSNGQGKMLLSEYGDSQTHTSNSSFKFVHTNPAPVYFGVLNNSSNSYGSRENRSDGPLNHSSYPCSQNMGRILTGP
The series is described as follows: EMSA; unlabeled Cold-Pr competitor weakened the shift; EMSA kit (Biyuntian/Beyotime) per instructions; buffer, salt, pH and temperature not stated. The following applies: protein: recombinant; tags: GST; blunt as designed; printed strands are not exact complements (F has GGAAC / GGGC, complement of R has GGAC / GGGGC; possible misprint).

B1: W-box probe (Biotin-Pr) (dsDNA)
DNA 1: GGAACTTGACCTTGACCTTAGGGCTGCAGGAATTCG
DNA 2: CGAATTCCTGCAGCCCCTAAGGTCAAGGTCAAGTCC
Turning to B1, the binding result is reported as “binds”.
